Laboratory results published in the DeepSol protein solubility set.

Assay: soluble on expression in E. coli; label from the status in PepcDB or PDB records

| Sequence | soluble on expression in E. coli |
| --- | --- |
| DLGTQFLKIGIVKPGIPMDIALNTESRRKTPNVVMIQDGHRTFADAAIGMQVRYPHLVHGQLNDLVGKSTQHPSFELFKRRNTFFEVDDAPKNASSINFKLGGESYTVEALTAMILANAKKFTEEYAQAAEIKDVVITVPVYFTPAERLAVERAAQMAGLTVLQLINDGTAAALSHGIFRRKEIGEKPQRLMVYDMGAAKTTATIVEFKLVKEKYEKQPKMTVLGVGFDRTLGGIEMTNRLRDHLIEMFEKNYKPKTKVNTNRRAMTKFSKEAERLKQVLSANAEHFAQIESAHEDIDAKLKVTREDFNHLISDMESRFGEPIEQALRMAQIPIDDIDQFVLMGAGTRVPKVQEIVQKTIGTKEIGKFLNTDEAVAMGALFQAAHLSKGFKVKPFNIEEKVIFPVEVHFVSKIRDEKTEEITGEKNVVKTLFAANSVYPTHPKTISLTSYSDDFSVALKYGKIESFTKQQVQEIGSLLDNLVDVEISGLSEALKNRSSEESEFKGVKVSFIVDASGIVRVRRAEALFEPKSGLVGSIASTISGLFSSKTEEGEPTTDDSTPQSTEEKTEEKESVKVEDSTPEPEPETPVNSTSEESPKTNETEKNASSGNATEVKEKKKELPSIVRLRITNKYPSAFVPNKYDVQEEKRRMEAFAEKERLASERAAVENELESFNFECSQYLEETEFTDYMADEEKTKLEDSVKRIRAWLEDDVTKDTPTKDFTDNLLELKNVVRSVKKRQEHDKAVPEKLKSLETLLETTFSLTTLGNNVDEEKALFKKEDRDGLKSKLDKLKIWVTDVRKHLDLKKKTDDFNFTGKDIDTKTKNLNREVDRFMKKMKKITTLDDLAKDGKIDIDTIVEEAEKKKAEQDKKKEKKSTKKANESKVENESEIKTEL | not soluble |
| METTIFQFQKTFFTKPPKERVFVLHGEEQYLIRTFLSKLKEKYGENYTVLWGDEISEEEFYTALSETSIFGGSKEKAVVIYNFGDFLKKLGRKKKEKERLIKVLRNVKSNYVFIVYDAKLQKQELSSEPLKSVASFGGIVVANRLSKERIKQLVLKKFKEKGINVENDALEYLLQLTGYNLMELKLEVEKLIDYASEKKILTLDEVKRVAFSVSENVNVFEFVDLLLLKDYEKALKVLDSLISFGIHPLQIMKILSSYALKLYTLKRLEEKGEDLNKAMESVGIKNNFLKMKFKSYLKANSKEDLKNLILSLQRIDAFSKLYFQDTVQLLRDFLTSRLEREVVKNTSHGG | soluble |
| MYPLNIDGEELYLRDLKINDLPNLLKWYNNIDDFSLATGVYKPITLKEILERYFKCQSSSKDFFAGIYIRKSGEMIGVLKGWLDCEKDLSAWINSIIIDPGFQRKGYGSKTVNLFIRHVKECCNVKRVYLSVAEENFKGMSFWKQQSFREVKKISKDRDSVSKCKSIVIMCREI | not soluble |
| KRTWWLWRQTISSSRGNKVVFEVNADSVRYKSGKIDRSLAWSEIDQLEQTDLGFILHLGKQRQYISKSCLNEEVIAFMVEQHAGSKAS | not soluble |
| MGSDKIHHHHHHMVMEYELRTPLVKDQILKLKVGDVVYITGEIFTARDEAHARALEWMEEGKELPFSFDKGVVYHCGPLVKKNDEWRVVSAGPTTSARMNPFTPKILEKVECMGIIGKGGMSEEVVEAMRGKAAYFAFTGGAGALAAMSIKKVKGVVWEDLGMPEAVWLLEVERFGPCIVAIDAHGNSLYRR | soluble |
| AALSNLSIRTTAHRFMEEMSMYAQAPVALAARDRLNMLYLDVVQTNSTMRRPIGSTLPLHNSSMGRACLAATPKQERYFLLEAIQKREPENWIEIKEKLDIAFDQYAEYGYCLSLGEWQQGINSVAVPLMSTKHGLYVFNCGAPSYALSTEKLIEDIGPRLKYMVNSIQDALTESL | not soluble |
| MILPPIPTPFDREGRLDEEAFRELAQALEPLVDGLLVYGSNGEGVHLTPEERARGLRALRPRKPFLVGLMEETLPQAEGALLEAKAAGAMALLATPPRYYHGSLGAGLLRYYEALAEKMPLFLYHVPQNTKVDLPLEAVEALAPHPNVLGIKDSSGDLSRIAFYQARLQEFRVYTGHAPTFLGALALGAEGGILAAANLAPRAYRALLDHFREGRLAEAQELQKKLFPLGDLLAKGGVPLLKQALRHLGLPAGYPRPPYPAESPLWERFLPVLEGLKEEGWVL | soluble |
| MSLNSNEKMGIFQGKKMKTKIIVIVGPTAVGKTALAIEVAKRFNGEVVSGDSQQVYRGLDIGTAKASPEEQAAVPHHLIDVREITESYSAFDFVSEAKMTIEDIHSRGKLAIIAGGTGLYIQSLLEGYHLGGETPHEEILAYRASLEPYSDEELAHLVEQAGLEIPQFNRRRAMRALEIAHFGQDLENQEILYEPLIICLDDERSQLYERINHRVDLMFEAGLLDEAKWLFDHSPNVQAAKGIGYKELFPYFRGEQTFEEARESLKQATRRFAKRQLTWFRNRMQVTFYQIGESGVQDRILSQIEEFLDDEGHHHHHH | soluble |
| MSLQVVIKFGGTSVSTRATWNNIAAITQKHLNTGVQPVIVCSALTQISNKLEKAIEAALLDEHHSLFNDIQSSHLNLAEQLEVNHQLIANDLHQLQQWLTGISLLKQAPAKTHAQILSLGELMMTRMGHAFLERHEIKVKWYDARELLTSTPTLGGETMNYLSARCESEYDPGLVEKFLSSGAQAIITQGFFAANPHGETVLLGRGGSDTSAALLAGKLQAASCEIWTDVPGIYTANPHQLPHARLLKQLNYDEAQEIASMGAKVLHPNCIPPVRKANIPMVVKYTHLPEHSGTLITKDIDESAPLIKSIQVKHSILLISIDTLNMWQQVGFLADVFAAFKKHGFSVDLLSSSEFNVTLSLDVNAKIHDRPAINALLDDLNQFGRAKLIEPCSAVSLVGHHIRTVLPHLGPALEVFEAKQVYLMSLASNDLNLTFVVDESHADKLCQRLHHLLIESNPQIFYYSKSWHEEFGKPNVRPTPWWEIERDRLLTTSAIHSPCYVYHSPTQAIRARQLSALESIDSLFYAVKANPFPSILKTLEKEGIGFECVSIQELELVLKLFPNIKKERILFTPNFAPKSEYEFALQTGCYVTIDSLYPLENWPELFKNREVIVRIDPGTGAGHHKHVSTGGNESKFGITQNDISKILSLTKSNHIKVIGLHAHSGSGILSTDLWQQTAVMLASLTDQFPEVRSINLGGGLGIVEKPGQHPIDFAALDAQLMAVKSQYPGLAIWLEPGRFFVAESGVILAKVTQCKEKGKVKFIGIETGMNSLIRPSLYGAYHEIVNLTRLHEEKAGFAHIVGPICESGDTLGYDRLLPVTKEGDVILIANTGAYGHCMSSHYNLRPPAQEIVLEEGHHHHHH | soluble |
| MKNELICYKQMPVWTKDNLPQMFQEKHNTKVGTWGKLTVLKGKLKFYELTENGDVIAEHIFTPESHIPFVEPQAWHRVEALSDDLECTLGFYCKKEDYFSKKYNTTAIHGDVVDAAKIISPCKVLDLGCGQGRNSLYLSLLGYDVTSWDHNENSIAFLNETKEKENLNISTALYDINAANIQENYDFIVSTVVFMFLNRERVPSIIKNMKEHTNVGGYNLIVAAMSTDDVPCPLPFSFTFAENELKEYYKDWEFLEYNENMGELHKTDENGNRIKMKFATMLARKK | soluble |
| MSNISTPQPRIGFVSLGCPKNLVDSERILTELRTEGYQVVPRYDDAELVIVNTCGFIDSAVQESLEAIGEALNENGKVIVTGCLGAKENQIREVHPKVLEITGPHSYEQVLSHVHQYVPKPTHNPFTSLVPEQGVKLTPRHYAYLKISEGLEHHHHHH | soluble |
| MGSDKIHHHHHHMAGFRPKASPRLSPDAERLVADALALDASGSRMEDAYWERRLSQRLGRLLKNGSQTALDAALEHLFKHNADASDVLAEQAETLAESAMVEVDGVRYDALLVAAPILAHTRYAIPSGSLKPDLAQTLAVHLQAHVLATGTKVALSPYLYSIDQLPRTHSDTFALTHKLAAAALSGTVPKVDLRDLPETAPILADPRYLLAVVVAPHEQALFRWQEDAKEHHAERSTCLEQWRSQVQATVALLLPGCEFELLLPDAFFLSCRESDKSIRPLTVRAAVNYLSGTLDVPAGQLAAVVAAFGEEVVEEYRVGFTMRGEKDVIYGIVWPVYGREAGEVDADEKGNPLEQICEELRNAGVEDIFRHAALFDPEYCEDCGTPLYADRNGEIVHAELPEDAPTQQPLFH | not soluble |
| MLNITEDEIDSISLLNNPLKDPSKRSIIIIDHSRNDRSPILIGLQGFFGTNRSFMNRYFNKVDFISVLEKIAEKAENDGFIIALPDTMTSLYGNQYINSPAVGNYEDFIVSDVLEYLFKRYGKRPVGLFGKSSGGFGAYTLAVRHPDKISGFVDVAGDSGFEYCYLPDFPAAIKYFRRYGVLEWYTYVKSKMNMSPEDMKVVNVLAMSAFYSPDQEAEMGIGLPFDTRTGLLKYDVWDKWRRLDPAFNISNNIDVLKDMAVFMQVGSRDDFHIDIGMEAMHNFLEKNGIVHFFETYDETHFDLDYLYLKSLPLLIELISD | not soluble |
| MGSDKIHHHHHHMETRNLQRNPILLVHGITDTEAVFDQMAAYLRQMGWTVYTLNLVPNNGEAPLNVLAQQVADYVAANITPEQPFDLVGFSMGGIVSRYYVQRLGGISHVQRFVTISSPHYGTVIAYASQRPGCVQMRPNSLFLQDLNHDVQMLEELNFTSIWTPYDLMIVPTHSSKMPVGKELSIPVALHSWMLRDVRSIEAVAAALAEPINCDRRFEYIPNSSIHN | not soluble |
| MGSDKIHHHHHHMEGKALRQGSIAGKGAPRNTASLIQYAQDHFDAAHFQGLMAIYGRPLADRAVALTHDRGRRVVDFVRCSYLGLDNHPQIVAGAVEAMKEYGTLHWSCARTRLNFSILGDLEAALSELFDARVITYTTVLAANMGALPLIASGHLTGGVKPLMVFDRLAHATLAFHKGTIAAETRVETIAHNDLEALEMLCRTNGSVAFVCDGVYSMGGSADLARLRRLQERYGLFLYIDDAHGVSIFGKHGEGFARSQMSGPLGERTIVAASLGKGFGASGGLIMLGTARQEELFRRFAVAHAFSASLNVAAIGAARASQQLHLTEELTELQQRLRSRTALFDSLVPTEQQGSPLPIRTVEIGDEMTAIGAARALLDRGFYTSAIFFPTVARGRAGLRLCPTAGHSEDDIRGLGIAIQDVLKEISGR | not soluble |
| MSLHRLNLNGYEPDRHHEAAVAFCIHAGTDELTSPVHQHRKGQLILALHGAITCTVENALWMVPPQYAVWIPGGVKHSNQVTANAELCFLFIEPSAVTMPTTCCTLKISPLCRELILTLANRTTTQRAEPMTRRLIQVLFDELPQQPQQQLHLPVSSHPKIRTMVEMMAKEPVEWGSLGQWAGFFAMSERNLARLIVKETGLSFRQWRQQLQLIMALQGLVKGDTVQKVAHTLGYDSTTAFITMFKKGLGQTPGRYIAGLTTVSPQSAKPDPREGHHHHHH | soluble |
| DKLYPCQCGKSFTHKSQRDRHMSMHLGLRPYGCGVCGKKFKMKHHLVGHMKIHTGIKPYECNICAKRFMWRDSFHRHVTSCTKSYEAAKAEQNTTEA | soluble |
| MAHHHHHHMQRWPCRRCCRAATLGSRTFVLVRRRAPSAFITTASHASSGAAPPWTVAHQRVCIIIPPVEKLTTPPSPRLSRRYVDSQTLDDSRTQQADAQEPDHFRFAIKNSERGLLDHGVTPDAIAFIAEAEEEYRASSSYLHDRPGGAGMPESETHVDEVTGQQTTTTRIAAPFGETYVPSNRERFAERQRVGELSRQLNLVDKPFMLDEHAQLNLRKERQLCELLASPMPQLAKADEVAHFLLNGVYAQNLALQPRSCESVMLLYSHASFLRRLEGPTKQLTGRAHDAARLAAPSSGADTRAVPRTPQDVPFLDDMRRLYTHQKRCFISPTPLSLEHFMTTLSVITAPSTTAFHLANRLLLDADKFVLLPTRTTYTAYFTVCHVNNAMQFAMARYTDAVQALQLPVDAPMLTALLKGLNESGYVEEAVSLLSRIGHVAVSTPLLNASLETLLLSEQALACFSLYDAMRGSSVKPNAETYTLLLLACEKSQQWRRVTAILAEMQRRRVRGNEQTLNLLLKGLLQERLHSYAAQLYHTMLAKKVPLWPALELGVRPLLR | not soluble |
